From article PMC9456187, “The Ambivalence of Connexin43 Gap Peptides in Cardioprotection of the Isolated Heart against Ischemic Injury” (International Journal of Molecular Sciences, 2022)

How the values were obtained:
[1] = biological target: RadA-EL1 (extracellular loop 1 of connexin43 grafted into the monomeric ATPase domain of Pyrococcus furiosus … (Pyrococcus furiosus | , Only the grafted connexin43 EL1 loop (the binding part) is given. It was displayed on the His-tagged monomeric RadA ATPase domain of Pyrococcus furiosus, treated here as a carrier. The scaffold limits)); assay: SPR; Biacore T200; his-tagged RadA-EL1 captured on NTA surface (about 200 RU) as ligand, Gap27 injected as analyte at 30 µL/min; 25 °C; 50 mM HEPES pH 7.5, 500 mM NaCl, 0.005% Tween-20; reference channel without nickel; 1:1 binding model; details: both partners purified
[2] = biological target: RadA-EL2 (extracellular loop 2 of connexin43 grafted into the monomeric ATPase domain of Pyrococcus furiosus … (Pyrococcus furiosus | , Only the grafted connexin43 EL2 loop (the binding part) is given. It was displayed on the His-tagged monomeric RadA ATPase domain of Pyrococcus furiosus, treated here as a carrier. The scaffold limits)); assay: SPR; Biacore T200; his-tagged RadA-EL2 captured on NTA surface (about 200 RU) as ligand, Gap26 injected as analyte at 30 µL/min; 30 °C; 50 mM HEPES pH 7.5, 500 mM NaCl, 0.005% Tween-20, 0.1 mM TCEP; reference channel without nickel; 1:1 binding model; details: both partners purified
RadA-EL2 (extracellular loop 2 of connexin43 grafted into the monomeric ATPase domain of Pyrococcus furiosus … (Pyrococcus furiosus | , Only the grafted connexin43 EL2 loop (the binding part) is given. It was displayed on the His-tagged monomeric RadA ATPase domain of Pyrococcus furiosus, treated here as a carrier. The scaffold limits)), sequence (chain, as listed by the source): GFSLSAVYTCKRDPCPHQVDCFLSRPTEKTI

RadA-EL1 (extracellular loop 1 of connexin43 grafted into the monomeric ATPase domain of Pyrococcus furiosus … (Pyrococcus furiosus | , Only the grafted connexin43 EL1 loop (the binding part) is given. It was displayed on the His-tagged monomeric RadA ATPase domain of Pyrococcus furiosus, treated here as a carrier. The scaffold limits)), sequence (chain, as listed by the source): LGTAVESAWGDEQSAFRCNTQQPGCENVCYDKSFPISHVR

Binder | Kd [1] | koff [1] | Kd [2] | koff [2]
SRPTEKTIFII (connexin43 mimetic peptide, 11 amino acids, analogue of the second extracellular loop (EL2) of connexin43; The peptide was tested on the RadA-EL1 construct; also called G27; connexin mimetic peptide Gap27; source: bought: Pepnome Inc., Hong Kong (peptide)) [Gap27] | 6 µM | 0.061 s⁻¹ | – | –
VCYDKSFPISHVR (connexin43 mimetic peptide, 13 amino acids, analogue of the first extracellular loop (EL1) of connexin43; The peptide was tested on the RadA-EL2 construct; also called G26; connexin mimetic peptide Gap26; source: bought: Pepnome Inc., Hong Kong (peptide)) [Gap26] | – | – | 8 µM | 0.0043 s⁻¹
